Experimental findings from US9670514B2, “Method for producing polysaccharide” (SANYO CHEMICAL INDUSTRIES, LTD., priority 2011, dated 2017) are described below.

Data set [1] can be described thus: Specific activity of ribonucleoside diphosphate conversion enzyme solutions (TLC, UV 260 nm). The class given is biochemical. The following applies: 1 mM uridine diphosphate, 30° C., pH 7.0, with the co-substrate of each enzyme. How it is done: Reaction solution (2) was prepared by adding 10 μL of 1 M sucrose aqueous solution and 10 μL of sucrose synthase aqueous solution (D7-1) to 1 mL of aqueous solution R (50 mM phosphate buffer (pH of 7.0) containing 100 mM sodium chloride, 10 mM magnesium chloride, and 1 mM uridine diphosphate). Three such reaction solutions (2) were prepared and allowed to react at 30° C. for 5 minutes, 10 minutes, and 15 minutes, respectively. As for the amount of compound (C-7) as the reaction product (uridine diphosphate-glucose), the reaction product was developed on TLC (PEI-Cellulose plate available from Sigma-Aldrich Corporation, hereinafter the same) (developing solvent: an aqueous solution containing 1 M LiCl and 1 M formic acid, hereinafter the same), and detected with a UV light (260 nm). The specific activity of sucrose synthase aqueous solution (D7-1) was calculated to be 0.3 U/μL from the relationship between the yield of compound (C-7) and the reaction time.
Reaction solution (3) was prepared by adding 0.1 mg of reduced thioredoxin and 10 μL of ribonucleotide diphosphate reductase aqueous solution (D6-1) to 1 mL of aqueous solution R. Three such reaction solutions (3) were prepared and allowed to react at 30° C. for 5 minutes, 10 minutes, and 15 minutes, respectively. As for the amount of compound (C-6) as the reaction product (deoxyuridine diphosphate), the reaction product was developed on TLC and detected with a UV light (260 nm). The specific activity of ribonucleotide diphosphate reductase aqueous solution (D6-1) was calculated to be 0.3 U/μL from the relationship between the yield of compound (C-6) and the reaction time.
Reaction solution (4) was prepared by adding 10 μL of 1 M monopotassium phosphoenolpyruvate aqueous solution (available from Wako Pure Chemical Industries, Ltd.) and 10 μL of pyruvate kinase aqueous solution (D4-1-1) to 1 mL of aqueous solution R. Three such reaction solutions (4) were prepared and allowed to react at 30° C. for 5 minutes, 10 minutes, and 15 minutes, respectively. For the amount of compound (C-4) as the reaction product (uridine triphosphate), the reaction product was developed on TLC and detected with a UV light (260 nm). The specific activity of pyruvate kinase aqueous solution (D4-1-1) was calculated to be 0.3 U/μL from the relationship between the yield of compound (C-4) and the reaction time.
Reaction solution (5) was prepared by adding 10 μL of nucleotidase aqueous solution (D3-1) to 1 mL of aqueous solution R. Three such reaction solutions (5) were prepared and allowed to react at 30° C. for 5 minutes, 10 minutes, and 15 minutes, respectively. For the amount of compound (C-3) as the reaction product (uridine monophosphate), the reaction product was developed on TLC and detected with a UV light (260 nm). The specific activity of nucleotidase aqueous solution (D3-1) was calculated to be 0.3 U/μL from the relationship between the yield of compound (C-3) and the reaction time.
Reaction solution (6) was prepared by adding 1 mg of polyuridine (product name “polyuridylic acid potassium salt” available from Sigma-Aldrich Corporation) and 10 μL of polyribonucleotide nucleotidyltransferase aqueous solution (D5-1) to 1 mL of aqueous solution R. Three such reaction solutions (6) were prepared and allowed to react at 30° C. for 5 minutes, 10 minutes, and 15 minutes, respectively. […]

The nature of data set [2]: Enzyme activity ratio (Y1)=Vmax1/Vmax2 of conversion enzyme (Lineweaver-Burk). Type of data set: biochemical. Conditions: each. An excerpt: In the present invention, in the case where ribonucleoside diphosphate conversion enzyme (D) is used, an enzyme activity ratio (Y1) calculated from the following formula (1) using enzyme activity Vmax1 and enzyme activity Vmax2 described below is preferably not lower than 0.1 in terms of efficient polysaccharide production and efficient use of the substrate (ribonucleoside diphosphate-monosaccharide (A)). Enzyme activity ratio (Y1)=Vmax1/Vmax2 (1) • Enzyme activity Vmax1: the enzyme activity of ribonucleoside diphosphate conversion enzyme (D) on ribonucleoside diphosphate. • Enzyme activity Vmax2: the enzyme activity of ribonucleoside diphosphate conversion enzyme (D) on ribonucleoside diphosphate-monosaccharide (A).
An enzyme reaction solution (II) containing specific amounts of substrate (ribonucleoside diphosphate or uridine diphosphate-monosaccharide (A)), enzyme (polysaccharide synthase (B) or ribonucleoside diphosphate conversion enzyme (D)), pH adjuster (K), and water is prepared, which is adjusted to a specific temperature and a specific pH. • Phosphate-containing compound (F) is added, if necessary, to the enzyme reaction solution (II) if the enzyme to be used is (D4). Reducing agent (d6) is added if the enzyme is (D6), and raw material (d7) of nucleotide sugar is added if the enzyme is (D7).
After preparation of the enzyme reaction solution (II), it is allowed to stand for enzyme reaction for 1 minute to 100 hours. Next, the amount (X) of the reaction product obtained from the reaction is measured to determine the initial enzyme reaction velocity v. Likewise, the initial enzyme reaction velocity v is determined, using the enzyme reaction solution (II) having a different substrate concentration. A Lineweaver-Burk plot is generated from the above-obtained initial enzyme reaction velocity v and substrate concentration, and the enzyme activity Vmax is determined therefrom.
The enzyme activity Vmax (M/s) is determined using Lineweaver-Burk plot derived from Michaelis-Menten kinetics. […]
In the above measurement, the result determined using ribonucleoside diphosphate conversion enzyme (D) as an enzyme and ribonucleoside diphosphate as a substrate represents Vmax1, and the result determined using ribonucleoside diphosphate conversion enzyme (D) as an enzyme and ribonucleoside diphosphate-monosaccharide (A) as a substrate represents Vmax2. In the case where two or more types of ribonucleoside diphosphate-monosaccharide (A) are used, Vmax2 is determined for each ribonucleoside diphosphate-monosaccharide (A). The enzyme activity ratio (Y1) is also determined for each type from formula (1) using each Vmax2. […]
Enzyme reaction solution (II-1) was prepared by adding the following to 1 mL of aqueous solution P (50 mM phosphate buffer (pH of 7.0) containing 100 mM sodium chloride and 10 mM magnesium chloride): a substrate (uridine diphosphate) to a concentration of 0.5 mM in the solution, sucrose (available from Wako Pure Chemical Industries, Ltd.) to a concentration of 100 mM in the solution, and 1 μL of sucrose synthase aqueous solution (D7-1). […] Enzyme reaction solution (II-1) was allowed to stand at 30° C. for enzyme reaction for 30 minutes while measuring the amount of the reaction product (uridine diphosphate-glucose) using HPLC at 5-minute intervals, and the initial enzyme reaction velocity v was calculated. […]

[3] abbreviates: Vmax2 substrates uridine diphosphate-glucuronic acid and uridine diphosphate-N-acetylglucosamine.
The mark [4] stands for this setting: Vmax2 substrates UDP-glucuronic acid, -N-acetylglucosamine, -N-acetylgalactosamine, -glucose, -mannose, -glucosamine.

B1: apyrase aqueous solution (D2-1): apyrase, SEQ ID NO: 7, derived from xenopus (protein, listed as Xenopus laevis)
chain: MKSPQVECKESMSPLRISVAGLPVLASMTKTADPRFRPRWRAILLSGIAVAFLLLLLCYHRSSGPRIQVANPHNWRMVHQVAGELYNDTYPLTPPLRTPEGLRYHIAIIADLDTDSRSAKANTWVSYLKRGYLTLSSSGDHVAVEWEKEDIVLETHLAEKGRGMELSELIVFNGKLYSVDDRTGVVYRIEGSKAVPWVILTDGDGTVGKGFKAEWLAVKDEQLYVGGLGKEWTTTSGVVLNENPEWVKVIGPRGDTQHHNWVSNYNQLRSAAGIQPPGYLIHESAAWSDSLKSWFFLPRRASQEQYSEKEDEKRGSNILLRATPDFSDIKMSHVGTLNPTHGFSSFKFIPGTDDQIIVALKSEEDNGKVATYITAFTLDGRILLPETKVGNVKYEGIEFI
B1 displayed a specific activity in data set [1] of 0.3 U/μL. For the same molecule, the “enzyme activity ratio (Y1) of each type” value in data set [2] (setting [3]) is on record as ≥ 10.

B2: arginine kinase aqueous solution (D4-1-3): arginine kinase, SEQ ID NO: 9, derived from Toxoplasma gondii (protein, listed as Toxoplasma gondii)
chain: MLSAASPALARKSFDFRGSALRHFSSSGGHRGSSDTKISPGHSDKSGEPLDLPVFTSTKQIATIGPASWDYEEIERLFLAGVDVFRLNMSHGLLTEKHQQLLHVRHLEKVYKHPIAVLADLPGPKFRLGVFNNDEATLETGKSFILDSSTQPGDASRVQLPHPEILSVLRPDDIVLMDDGKVKLRVTEVFADTTALSRGLGDIESVSHTASPGSSVVRAPAVRCTVLVGGRISSKKGVNVPSARLPISALSARDRELARTVASWGVDWIALSFVQSADDVHELRRELREAAEAAGSTTAQYAAEQNRSESHVDRGDASGAGCRIRPDISVMVKIEKPIALENIAEIVAAADGIMVARGDLGVELPNIAWLPRVQKRLVSLCREAGKPVVVATQMLESMMQAPLPTRAEVSDVANAVYDGADAVMLSGETAAGNAPARVACMQRLGIEGVENDPSFWELEDQRRQARLRAAERCASTGTSALRVPRASKGREQELEKGSELQGESRDRTEEILSRFLPGRREHLAFSEADRQGNTSGDTNQGTSKTEQGADESDAWVEHTAAAVARQSGAKAIVVFGENEALLQRLATLRPTAPVLAVTECVHTARRLKMYWGIYPVLLEAEDQANVESRARRPASLDDQLRLACEFARKEKFATESTDNLVVLGRLPGGRENGTNSDKTTARLTRPILTVCTLESGR
modifications: aqueous solution
B2 returned a specific activity in data set [1] of 0.3 U/μL. In addition, in data set [2] (setting [4]), the “enzyme activity ratio (Y1) of each type” value was ≥ 10.

B3: ribonucleotide diphosphate reductase aqueous solution (D6-1): ribonucleotide diphosphate reductase, SEQ ID NO: 3, derived from Corynebacterium glutamicus (protein, listed as Corynebacterium glutamicum)
chain: MAADSDLSVHDAYLKEHVAPVKAINWNSIPDSKDLEVWDRLTGNFWLPEKVPVSNDIKSWGTLNEVEKAATMRVFTGLTLLDTIQGTVGAISLLPDADSLHEEAVLTNIAFMESVHAKSYSNIFMTLASTAEINDAFRWSEENENLQRKAKIILSYYEGDDPLKRKIASVILESFLFYSGFYLPMYWSSHSKLTNTADVIRLIIRDEAVHGYYIGYKYQKAVAKETPERQEELKEYTFDLLYDLYDNETQYSEDLYDDLGWTEDVKRFLRYIANKALNNLGYEGLFPADETKVSPNILSALSPNADENHDFFSGSGSSYVIGKAENTEDDDWDF
B3 yielded a specific activity in data set [1] of 0.3 U/μL. In addition, the “enzyme activity ratio (Y1) of each type” value in data set [2] (setting [3]) is ≥ 10.

B4: nucleoside diphosphate kinase aqueous solution (D4-1-2): nucleoside diphosphate kinase, SEQ ID NO: 8, derived from rat pancreas (protein)
chain: LSGIAVAFLLLLLCYHRSSGPRIQVANPHNWRMVHQVAGELYNDTYPLTPPLRTPEGLRYHIAIIADLDTDSRSAKANTWVSYLKRGYLTLSSSGDHVAVEWEKEDIVLETHLAEKGRGMELSELIVFNGKLYSVDDRTGVVYRIEGSKAVPWVILTDGDGTVGKGFKAEWLAVKDEQLYVGGLGKEWTTTSGVVLNENPEWVKVIGPRGDTQHHNWVSNYNQLRSAAGIQPPGYLIHESAAWSDSLKSWFFLPRRASQEQYSEKEDEKRGSNILLRATPDFSDIKMSHVGTLNPTHGFSSFKFIPGTDDQIIVALKSEEDNGKVATYITAFTLDGRILLPETKVGNVKYEGIEFI
modifications: Rat pancreas
As to B4, the specific activity in data set [1] stood at 0.3 U/μL. Besides, the “enzyme activity ratio (Y1) of each type” value in data set [2] (setting [4]) is reported as ≥ 10.

B5: nucleotidase aqueous solution (D3-1): nucleotidase, SEQ ID NO: 5, derived from Escherichia coli (protein, listed as Escherichia coli)
chain: MKQSHFFAHLSRLKLINRWPLMRNVRTENVSEHSLQVAMVAHALAAIKNRKFGGNVNAERIALLAMYHDASEVLTGDLPTPVKYFNSQIAQEYKAIEKIAQQKLVDMVPEELRDIFAPLIDEHAYSDEEKSLVKQADALCAYLKCLEELAAGNNEFLLAKTRLEATLEARRSQEMDYFMEIFVPSFHLSLDEISQDSPL
Consider B5, for which the specific activity in data set [1] is recorded as 0.3 U/μL. Moreover, the “enzyme activity ratio (Y1) of each type” value in data set [2] (setting [3]) is on record as ≥ 10.
